# Experimental data from patent publication US20240352434, “COMPOSITIONS COMPRISING A VARIANT CAS12I3 POLYPEPTIDE AND USES THEREOF” (Arbor Biotechnologies, Inc., published 2024).
# Residue numbers refer to the chain shown, from its start.
# T1: Cas12i3 S536R K583R N711R C724R (Unidentified, S536R,K583R,N711R,C724R)
# T1 chain: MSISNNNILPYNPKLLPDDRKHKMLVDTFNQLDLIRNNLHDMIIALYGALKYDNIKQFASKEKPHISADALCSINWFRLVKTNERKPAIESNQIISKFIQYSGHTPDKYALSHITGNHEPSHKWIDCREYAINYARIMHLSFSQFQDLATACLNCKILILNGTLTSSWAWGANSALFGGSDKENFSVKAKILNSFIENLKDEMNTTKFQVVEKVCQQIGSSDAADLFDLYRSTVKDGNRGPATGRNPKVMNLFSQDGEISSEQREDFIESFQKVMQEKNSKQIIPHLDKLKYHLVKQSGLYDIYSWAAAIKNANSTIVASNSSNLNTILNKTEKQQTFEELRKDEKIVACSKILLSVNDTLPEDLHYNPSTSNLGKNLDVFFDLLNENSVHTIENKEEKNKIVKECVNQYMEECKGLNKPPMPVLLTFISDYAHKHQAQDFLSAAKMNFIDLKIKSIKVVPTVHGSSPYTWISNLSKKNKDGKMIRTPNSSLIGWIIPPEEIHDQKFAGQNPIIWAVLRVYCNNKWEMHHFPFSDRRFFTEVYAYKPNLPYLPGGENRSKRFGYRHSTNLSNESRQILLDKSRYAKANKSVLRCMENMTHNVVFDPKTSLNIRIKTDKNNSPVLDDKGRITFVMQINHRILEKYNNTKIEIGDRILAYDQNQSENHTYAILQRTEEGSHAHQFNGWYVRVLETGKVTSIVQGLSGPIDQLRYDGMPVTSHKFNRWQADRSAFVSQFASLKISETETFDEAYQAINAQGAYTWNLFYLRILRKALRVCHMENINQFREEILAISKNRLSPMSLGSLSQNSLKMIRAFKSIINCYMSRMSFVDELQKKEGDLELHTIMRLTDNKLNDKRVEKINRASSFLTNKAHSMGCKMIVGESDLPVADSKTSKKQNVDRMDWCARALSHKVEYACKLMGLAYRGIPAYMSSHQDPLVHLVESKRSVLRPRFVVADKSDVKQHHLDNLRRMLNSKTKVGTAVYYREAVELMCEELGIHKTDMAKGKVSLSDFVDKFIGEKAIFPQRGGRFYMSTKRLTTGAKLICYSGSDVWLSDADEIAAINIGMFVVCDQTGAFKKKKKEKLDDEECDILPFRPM
# T2: Cas12i3 S536R (Unidentified, S536R)
# T2 chain: T1 chain with R583K, R711N, R724C
# B1: AAVS1_T3 crRNA ; AAVS1_T3 target (ssRNA ; dsDNA)
# RNA: AUAGUGUGUCCUUAGUUGACAUGUGAGAAUGGUGCGUCCUAG
# DNA 1: GTGAGAATGGTGCGTCCTAG
# DNA 2: CTAGGACGCACCATTCTCAC
# B2: EMX1_T5 crRNA ; EMX1_T5 target (ssRNA ; dsDNA)
# RNA: AUAGUGUGUCCUUAGUUGACAUUAUUAUUCCCAUAGGGAAGG
# DNA 1: TATTATTCCCATAGGGAAGG
# DNA 2: CCTTCCCTATGGGAATAATA
# B3: VEGFA_T2 crRNA ; VEGFA_T2 target (ssRNA ; dsDNA)
# RNA: AUAGUGUGUCCUUAGUUGACAUAAUCCUCCACCAGUCAUGGU
# DNA 1: AATCCTCCACCAGTCATGGT
# DNA 2: ACCATGACTGGTGGAGGATT
# Molecular target: T1, Cas12i3 S536R K583R N711R C724R
# Assay: cell_activity; fold change in % indels, HEK293T; PAM not stated in example
# Method: (§1) Approximately 16 hours prior to transfection, 100 μl of 25,000 HEK293T cells in DMEM/10% FBS+Pen/Strep were plated into each well of a 96-well plate. On the day of transfection, the cells were 70-90% confluent. For each well to be transfected, a mixture of 0.5 μl of Lipofectamine 2000 and 9.5 μl of Opti-MEM was prepared and then incubated at room temperature for 5-20 minutes (Solution 1). […] In the case of negative controls, the crRNA was not included in Solution 2. The solution 1 and solution 2 mixtures were mixed by pipetting up and down and then incubated at room temperature for 25 minutes. Following incubation, 20 μL of the Solution 1 and Solution 2 mixture were added dropwise to each well of a 96 well plate containing the cells. 72 hours post transfection, cells are trypsinized by adding 10 μL of TrypLE to the center of each well and incubated for approximately 5 minutes. 100 μL of D10 media was then added to each well and mixed to resuspend cells. The cells were then spun down at 500 g for 10 minutes, and the supernatant was discarded. QuickExtract buffer was added to ⅕ the amount of the original cell suspension volume. Cells were incubated at 65° C. for 15 minutes, 68° C. for 15 minutes, and 98° C. for 10 minutes.
# (§2) Samples for Next Generation Sequencing were prepared by two rounds of PCR. The first round (PCR1) was used to amplify specific genomic regions depending on the target. PCR1 products were purified by column purification. Round 2 PCR (PCR2) was done to add Illumina adapters and indexes. Reactions were then pooled and purified by column purification. Sequencing runs were done with a 150 cycle NextSeq v2.5 mid or high output kit.
row,Binder,binding signal
1,B1,0.8 fold of wild-type
2,B2,0.72 fold of wild-type
3,B3,1.1 fold of wild-type

# Molecular target: T2, Cas12i3 S536R
# Assay: as above
# Method: as §1, §2
row,Binder,binding signal
1,B1,2.16 fold of wild-type
2,B2,1.27 fold of wild-type
3,B3,1.8 fold of wild-type
